Here are results for 1 molecule from patent publication US20090117091A1 (BIOMARIN PHARMACEUTICAL, published 2009).

The target of this experiment is GILT-tagged GAA ZC-701 (human, UniProt P10253 70-952). Put plainly: SPR (Biacore 3000); biotinylated CI-MPR Dom10-13 on SA chip, analyte in solution, steady-state affinity fit, I1572T mutant surface as reference. In general terms: In SPR one partner is held on a chip, and binding of the other changes the refractive index at the surface.

Protocol: Following docking of the SA sensor chip, the SA chip was washed two times with deionized water. The flow cells to be coupled were conditioned by injecting 60 ml of a buffer containing 50 mM NaOH/1 M NaCl at a flow rate of 20 ml/min. The chip was washed with H2O as described above. The chip was then washed with coupling buffer (10 mM HEPES pH 7.4/100 mM NaCl) as described above. […] Flow cells (FC) 1 & 2 were coupled at a higher density than FC 3 & 4. FC1 and FC3 were immobilized with the mutant Dom 10-13 construct and were used as the reference surface (i.e., the response obtained from FC1 was subtracted from FC2; the response obtained from FC3 was subtracted from FC4). FC2 and FC4 were immobilized with the wild-type Dom10-13 construct. […] Following the 50 ml injection of coupling buffer containing the Dom10-13 constructs, the chip was washed with coupling buffer alone (10 ml injection at a flow rate of 10 ml/min). Remaining unbound streptavidin binding sites were saturated with biotin by two sequential 10 ml injections of biotin (10 mM) at a flow rate of 10 μl/min.
After coupling, the flow cells were equilibrated in running buffer (10 mM HEPES pH 7.0, 150 mM NaCl, and 0.005% (v/v) surfactant P20).

B1: biotinylated, His-tagged recombinant wild-type CI-MPR domains 10-13 (1288FS) (receptor)
chain: AGAPTGHHHHHHAPGLNDIFEAQKIEWHEPFDLTECSFKDGAGNSFDLSSLSRYSDNWEAITGTGDPEHYLINVCKSLAPQAGTEPCPPEAAACLLGGSKPVNLGRVRDGPQWRDGIIVLKYVDGDLCPDGIRKKSTTIRFTCSESQVNSRPMFISAVEDCEYTFAWPTATACPMKSNEHDDCQVTNPSTGHLFDLSSLSGRAGFTAAYSEKGLVYMSICGENENCPPGVGACFGQTRISVGKANKRLRYVDQVLQLVYKDGSPCPSKSGLSYKSVISFVCRPEAGPTNRPMLISLDKQTCTLFFSWHTPLACEQATECSVRNGSSIVDLSPLIHRTGGYEAYDESEDDASDTNPDFYINICQPLNPMHGVPCPAGAAVCKVPIDGPPIDIGRVAGPPILNPIANEIYLNFESSTPCLADKHFNYTSLIAFHCKRGVSMGTPKLLRTSECDFVFEWETPVVCPDEVRMDGCTLTDEQLLYSFNLSSLSTSTFKVTRDSRTYSVGVCTFAVGPEQGGCKDGGVCLLSGTKGASFGRLQSMKLDYRHQDEAVVLSYVNGDRCPPETDDGVPCVFPFIFNGKSYEECIIESRAKLWCSTTADYDRDHEWGFCRHSNSYRTSSIIFKCDEDEDIGRPQVFSEVRGCDVTFEWKTKVVCP
modifications: biotinylated with BirA enzyme in the Biotin AS domain
notes: The protein was immobilised on a streptavidin chip; also called p1288; HIS-BIOTIN-CI-MPR DOMAINS 10-13
For B1, binding was put at a Kd of 33 nM.
